Source: article doi:10.1101/2022.08.11.503658

Assays:
Assay in all cases: SDS-PAGE of lysate kept at 25°C versus heated to 95°C, with immunoblot
[1] = biological target: Rotavirus SA11 VP6 (rotavirus SA11)
[2] = biological target: Rotavirus SA11 NSP3 linked to remnant residues of the 2A peptide (rotavirus SA11 | porcine teschovirus)
[3] = biological target: C-terminally 6xHis-tagged NoV GII.4 VP1 capsid protein expressed by rSA11/NSP3-2A-VP1His (human norovirus GII.4 MD145-12)
[4] = biological target: Rotavirus SA11 NSP3 (wild type, from rSA11/wt) (rotavirus SA11)
[5] = biological target: N-terminally 3xFLAG-tagged NoV GII.4 VP1 capsid protein expressed by rSA11/NSP3-2A-fVP1 (human norovirus GII.4 MD145-12)
[6] = biological target: C-terminally 1xFLAG-tagged NoV GII.4 VP1 capsid protein expressed by rSA11/NSP3-2A-VP1f (human norovirus GII.4 MD145-12)

Substance: Rotavirus SA11 VP6 (natural protein)
- stoichiometry N [1]: 3

Substance: Rotavirus SA11 NSP3 linked to remnant residues of the 2A peptide
- stoichiometry N [2]: 2

Substance: C-terminally 6xHis-tagged NoV GII.4 VP1 capsid protein expressed by rSA11/NSP3-2A-VP1His (natural protein)
- stoichiometry N [3]: 2

Substance: Rotavirus SA11 NSP3 (wild type, from rSA11/wt) (natural protein)
- stoichiometry N [4]: 2

Substance: N-terminally 3xFLAG-tagged NoV GII.4 VP1 capsid protein expressed by rSA11/NSP3-2A-fVP1 (natural protein)
- stoichiometry N [5]: 2

Substance: C-terminally 1xFLAG-tagged NoV GII.4 VP1 capsid protein expressed by rSA11/NSP3-2A-VP1f (natural protein)
- stoichiometry N [6]: 2
